# Where a chain is given by its changes, count along the chain named.
# B1: 48 nt RNA (collagen alpha1(I) 5' UTR SL) (structured_RNA)
# RNA: CCACAAAGAGUCUACAUGUCUAGGGUCUAGACAUGUUCAGCUUUGUGG
# Legend:
# Test in all cases: ITC; ITC: 20 mM Tris pH 7.25, 100 mM KCl, 5 mM MgCl2, 1 mM DTT, 298 K; protein titrated into RNA
# Settings in all cases: protein: recombinant; tags: N-terminal His6 (TEV-cleavable); stem-loop with internal bulge
# [1] = target: T1, HsLARP6(70-300) K86A (Homo sapiens, UniProt Q9BRS8 70-300, K86A)
# T1 sequence: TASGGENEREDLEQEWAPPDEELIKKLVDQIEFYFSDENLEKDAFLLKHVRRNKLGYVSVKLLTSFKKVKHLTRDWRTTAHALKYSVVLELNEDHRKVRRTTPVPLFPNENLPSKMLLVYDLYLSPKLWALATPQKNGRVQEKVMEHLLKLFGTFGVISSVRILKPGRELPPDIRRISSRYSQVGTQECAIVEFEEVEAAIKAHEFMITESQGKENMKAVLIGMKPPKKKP
# [2] = target: T2, HsLARP6(70-300) Q99A (Homo sapiens, UniProt Q9BRS8 70-300, Q99A)
# T2 sequence: T1 sequence with A17K, Q30A
# [3] = target: T3, RRM1 chimera (Homo sapiens, UniProt Q9BRS8 70-179+P05455:111-202, internal_change)
# T3 sequence: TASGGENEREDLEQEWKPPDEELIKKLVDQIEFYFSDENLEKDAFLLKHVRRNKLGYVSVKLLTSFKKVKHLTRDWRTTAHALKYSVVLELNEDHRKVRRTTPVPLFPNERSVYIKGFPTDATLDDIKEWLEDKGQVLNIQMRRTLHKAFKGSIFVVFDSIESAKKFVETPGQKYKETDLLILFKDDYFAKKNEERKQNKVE
# [4] = target: T4, HsLARP6(70-300) Y103A (Homo sapiens, UniProt Q9BRS8 70-300, Y103A)
# T4 sequence: T1 sequence with A17K, Y34A
# [5] = target: T5, HsLARP6(70-300) E262A (Homo sapiens, UniProt Q9BRS8 70-300, E262A)
# T5 sequence: T1 sequence with A17K, E193A
# [6] = target: T6, HsLARP6(70-300) W85A (Homo sapiens, UniProt Q9BRS8 70-300, W85A)
# T6 sequence: T1 sequence with W16A, A17K
# [7] = target: T7, HsLARP6 LaM (70-183) (Homo sapiens, UniProt Q9BRS8 70-183)
# T7 sequence: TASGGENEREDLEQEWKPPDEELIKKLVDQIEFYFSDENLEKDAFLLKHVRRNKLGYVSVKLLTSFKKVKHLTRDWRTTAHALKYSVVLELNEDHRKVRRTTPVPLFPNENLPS
# [8] = target: T8, HsLARP6(70-300) N180R (Homo sapiens, UniProt Q9BRS8 70-300, N180R)
# T8 sequence: T1 sequence with A17K, N111R
binder,measurement,setting,value
B1,Kd,[1],77 nM
same,binding result,[2],no binding
same,binding result,[3],no binding
same,binding result,[4],no binding
same,Kd,[5],5.3 nM
same,Kd,[6],22 nM
same,binding result,[7],no binding
same,Kd,[8],32 nM

# Reference: publication PMC4288179, “Synergic interplay of the La motif, RRM1 and the interdomain linker of LARP6 in the recognition of collagen mRNA expands the RNA binding repertoire of the La module”
